Laboratory results taken from paper PMC12510807, “MUC1 drives ferroptosis resistance in ICC via Src‐mediated FSP1 deubiquitination and myristoylation” (Clinical and Translational Medicine, 2025).

Molecular target: T1, recombinant Src (UniProt P12931 1-536)
T1 construct: the printed kinase domain limits 249-536 fit the 536-residue human protein; the tag on Src may differ between the three pull-downs; also called purified Src; source: recombinant, purified
Experiment: pull-down; in vitro GST pull-down with recombinant or purified proteins; which partner bore GST is not told
Conditions: both partners purified

B1: purified NMT1 (enzyme, UniProt P30419 1-496, looked up)
chain: MADESETAVKPPAPPLPQMMEGNGNGHEHCSDCENEEDNSYNRGGLSPANDTGAKKKKKKQKKKKEKGSETDSAQDQPVKMNSLPAERIQEIQKAIELFSVGQGPAKTMEEASKRSYQFWDTQPVPKLGEVVNTHGPVEPDKDNIRQEPYTLPQGFTWDALDLGDRGVLKELYTLLNENYVEDDDNMFRFDYSPEFLLWALRPPGWLPQWHCGVRVVSSRKLVGFISAIPANIHIYDTEKKMVEINFLCVHKKLRSKRVAPVLIREITRRVHLEGIFQAVYTAGVVLPKPVGTCRYWHRSLNPRKLIEVKFSHLSRNMTMQRTMKLYRLPETPKTAGLRPMETKDIPVVHQLLTRYLKQFHLTPVMSQEEVEHWFYPQENIIDTFVVENANGEVTDFLSFYTLPSTIMNHPTHKSLKAAYSFYNVHTQTPLLDLMSDALVLAKMKGFDVFNALDLMENKTFLEKLKFGIGDGNLQYYLYNWKCPSMGAEKVGLVLQ
notes: Purified NMT1 protein of the GST pull-down with Src; source: purified
binding result: binds
